In publication PMC3176292, “Mutations in Protein-Binding Hot-Spots on the Hub Protein Smad3 Differentially Affect Its Protein Interactions and Smad3-Regulated Gene Expression” (PLoS ONE, 2011):
Residue numbers refer to the chain shown, from its start. Each block holds one binder with its values, some of them ahead of it.

Tests used:
Experiment in all cases: co-IP; LUMIER: Renilla luciferase-Smad3 and Flag-tagged partner co-expressed with constitutively active Alk5 in HEK-293; Flag protein captured from cleared lysate (TNE: 10 mM Tris-HCl pH 7.8, 150 mM NaCl, 1 mM EDTA, 1% Igepal CA-630) on anti-Flag 96-well plates, 2 h at 4 °C; co-precipitated Renilla luciferase activity, TrxGA background subtracted, percent of wild-type Smad3
Settings in all cases: partners not purified
[1] = target: T1, Flag-Smad4, full length (UniProt Q13485 1-552)
T1 construct: Smad4; plasmid pCMV5-Flag-Smad4 (from J. Massagué); also called Smad4 FL; source: HEK-293, transfected, in lysate
T1 sequence (looked up): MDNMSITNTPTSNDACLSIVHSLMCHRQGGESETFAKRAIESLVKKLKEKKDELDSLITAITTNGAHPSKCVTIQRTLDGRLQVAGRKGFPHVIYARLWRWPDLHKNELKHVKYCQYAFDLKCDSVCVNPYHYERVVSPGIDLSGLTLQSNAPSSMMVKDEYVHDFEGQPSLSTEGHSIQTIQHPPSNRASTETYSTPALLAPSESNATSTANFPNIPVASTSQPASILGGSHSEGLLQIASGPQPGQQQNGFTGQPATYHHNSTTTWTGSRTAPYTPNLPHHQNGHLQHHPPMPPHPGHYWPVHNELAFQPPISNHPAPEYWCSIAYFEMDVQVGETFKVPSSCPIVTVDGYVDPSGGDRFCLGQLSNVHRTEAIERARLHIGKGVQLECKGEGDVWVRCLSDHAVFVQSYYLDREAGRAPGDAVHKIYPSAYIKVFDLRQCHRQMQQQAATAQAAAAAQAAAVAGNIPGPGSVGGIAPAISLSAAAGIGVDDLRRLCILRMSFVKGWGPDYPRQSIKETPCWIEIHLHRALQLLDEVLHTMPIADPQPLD

[2] = target: T2, SARA Smad-binding domain (amino acids 665–721) on the 3xFlag-thioredoxin scaffold (UniProt O95405 767-823)
T2 construct: SARA, amino acids 665–721; cloned into the unique RsrII site of pCI-3xFLAG-Trx; also called SARA aa665–721; TrxSARA; source: HEK-293, transfected, in lysate
T2 sequence (looked up): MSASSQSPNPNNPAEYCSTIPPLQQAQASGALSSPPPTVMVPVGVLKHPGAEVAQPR

[3] = target: T3, Ski Smad-binding domain (amino acids 2–56) on the 3xFlag-thioredoxin scaffold (UniProt P12755 2-56)
T3 construct: Ski, amino acids 2–56; cloned into the unique RsrII site of pCI-3xFLAG-Trx; also called Ski aa2–56; TrxSki; source: HEK-293, transfected, in lysate
T3 sequence (looked up): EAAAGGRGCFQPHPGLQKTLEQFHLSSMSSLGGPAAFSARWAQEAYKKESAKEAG

[4] = target: T4, Smurf2 Smad-binding domain (amino acids 252–330) on the Flag-thioredoxin scaffold (UniProt Q9HAU4 252-330)
T4 construct: Smurf2, amino acids 252–330; also called Smurf2 aa252–330; TrxSmurf2; source: HEK-293, transfected, in lysate
T4 sequence (Q9HAU4 252-330): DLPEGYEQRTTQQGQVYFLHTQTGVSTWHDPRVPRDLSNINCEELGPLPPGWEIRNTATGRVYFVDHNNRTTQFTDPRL

percent binding relative to wild-type Smad3 [1]: 3% | percent binding relative to wild-type Smad3 [2]: 125% | percent binding relative to wild-type Smad3 [3]: 3% | percent binding relative to wild-type Smad3 [4]: 23%
B1: Renilla luciferase-Smad3 D408H (natural protein, UniProt P84022 1-425, looked up)
chain: MSSILPFTPPIVKRLLGWKKGEQNGQEEKWCEKAVKSLVKKLKKTGQLDELEKAITTQNVNTKCITIPRSLDGRLQVSHRKGLPHVIYCRLWRWPDLHSHHELRAMELCEFAFNMKKDEVCVNPYHYQRVETPVLPPVLVPRHTEIPAEFPPLDDYSHSIPENTNFPAGIEPQSNIPETPPPGYLSEDGETSDHQMNHSMDAGSPNLSPNPMSPAHNNLDLQPVTYCEPAFWCSISYYELNQRVGETFHASQPSMTVDGFTDPSNSERFCLGLLSNVNRNAAVELTRRHIGRGVRLYYIGGEVFAECLSDSAIFVQSPNCNQRYGWHPATVCKIPPGCNLKIFNNQEFAALLAQSVNQGFEAVYQLTRMCTIRMSFVKGWGAEYRRQTVTSTPCWIELHLNGPLQWLHKVLTQMGSPSIRCSSVS
notes: Smad3; source: HEK-293, transfected together with constitutively active Alk5, in lysate

percent binding relative to wild-type Smad3 [1]: 181% | percent binding relative to wild-type Smad3 [2]: 8% | percent binding relative to wild-type Smad3 [3]: 1% | percent binding relative to wild-type Smad3 [4]: 119%
B2: Renilla luciferase-Smad3 Y297A (natural protein, UniProt P84022 1-425, looked up)
chain: B1 chain with Y297A, H408D
notes: as for B1
